Assays:
Kv1.3 [1] = biological target: T1, Kv1.3 (Homo sapiens, UniProt P22001); experiment: IonWorks Quattro automated (population patch clamp) electrophysiology on CHO-Kv1.3 cells; type: cell-based; set-up: expressed in transfected cells; conditions: IonWorks planar patch clamp, average IC50, read-out: Kv1.3 IC50 by IWQ
Method: Assay Plate preparation for electrophysiology. […] Before experiments, each sample was thawed at room temperature and an aliquot (70 to 80 μl) was transferred to a well in a 96-well polypropylene plate. In order to prepare the Assay Plate, several dilutions were made from the pharmacokinetic serum samples to give rise to Test Solutions. Dilutions of serum samples from the pharmacokinetic study were into 10% Phosphate Buffered Saline (PBS, with Ca^2+ and Mg^2+). […] Standard inhibition curves were also prepared in the Assay Plate.
Cell preparation for electrophysiology. CHO cells stably expressing the voltage-activated K^+ channel, Kv1.3 were plated in T-175 tissue culture flasks (at a density of 5×10^6) 2 days before experimentation and allowed to grow to around 95% confluence. […] The mean K^+ current amplitude was measured between 430 and 440 ms and the data were exported to a Microsoft Excel spreadsheet. The amplitude of the K^+ current in the presence of each concentration of the Test Solution or Standard was expressed as a percentage of the K^+ current in control conditions in the same well.
Standard inhibition curves were generated for each standard in various levels of rat serum and expressed as current percent of control (POC) versus log of nM concentration. […]

Kv1.3 [2] = biological target: T1, Kv1.3; experiment: Whole cell patch clamp electrophysiology on HEK293 cells stably expressing human Kv1.3; type: cell-based
[3] = system: IL-2 and IFNg production from PMA and anti-CD3 stimulated human PBMCs; experiment: Inhibition of T cell cytokine production following PMA and anti-CD3 antibody stimulation of PBMCs; type: cell-based; conditions: 48 hr
Text: Inhibition of T cell cytokine production following PMA and anti-CD3 antibody stimulation of PBMCs. PBMC's were previously isolated from normal human donor Leukophoresis packs, purified by density gradient centrifugation (Ficoll Hypaque), cryopreserved in CPZ Cryopreservation Medium Complete (INCELL, MCPZF-100 plus 10% DMSO final). PBMC's were thawed (95% viability), washed, and seeded at 2×10^5 cells per well in culture medium (RPMI medium 1640; GIBCO) supplemented with 10% fetal calf serum, 100 U/ml penicillin, […] streptomycin 2 mM L-glutamine, 100 uM non-essential amino acids, and 20 uM 2-ME) in 96-well flat-bottom tissue culture plates. Cells were pre-incubated with serially diluted (100 nM-0.001 nM final) ShK[1-35], Fc-L10-ShK[1-35] or fc control for 90 min before stimulating for 48 hr with PMA/anti-CD3 (1 ng/ml and 50 ng/ml, respectively) in a final assay volume of 200 ul. Analysis of the assay samples was performed using the Meso Scale Discovery (MSD) SECTOR™ Imager 6000 (Meso Scale Discovery, Gaithersbury, Md.) to measure the IL-2 and IFNg protein levels by utilizing electrochemiluminescence (ECL). […] For each well, 20 ul of Ruthenium-labeled detection antibodies (1 ug/ml final in Antibody Dilution Buffer; […], TNF, IFNγ) and 130 ul of 2×MSD Read Buffer added, final volume 150 ul. […] The plates were then read on the SECTOR™ Imager 6000. […]

[4] = system: IL-2 and IFNg production from anti-CD3 and anti-CD28 stimulated human PBMCs; experiment: Inhibition of T cell cytokine production following anti-CD3 and anti-CD28 antibody stimulation of PBMCs; type: cell-based; conditions: 48 hours
Method: Inhibition of T cell cytokine production following Anti-CD3 and anti-CD28 antibody stimulation of PBMCs. PBMCs were previously isolated from normal human donor Leukopheresis packs, purified by density gradient centrifugation (Ficoll Hypaque), and cryopreserved using INCELL Freezing Medium. PBMCs were thawed (95% viability), washed, and seeded (in RPMI complete medium containing serum replacement, PSG) at 2×10^5 cells per well into 96-well flat bottom plates. Cells were pre-incubated with serially diluted (100 nM-0.003 nM final) ShK[1-35], Fc-L10-ShK[1-35], or Fc control for 1 hour before the addition of aCD3 and aCD28 (2.5 ng/mL and 100 ng/mL respectively) in a final assay volume of […]. Supernatants were collected after 48 hours, and analyzed using the Meso Scale Discovery (MSD) SECTOR™ Imager 6000 (Meso Scale Discovery, Gaithersbury, Md.) to measure the IL-2 and IFNg protein levels by utilizing electrochemiluminescence (ECL). […] of supernatant was added to the MSD multi-spot 96-well plates (each well containing IL-2, TNFa, and IFNg capture antibodies). The plates were sealed and incubated at room temperature on a plate shaker for 1 hour. Then […] of Ruthenium-labeled detection antibodies (1 ug/ml final of IL-2, TNFα, and IFNγ in Antibody Dilution Buffer) and […] of 2×MSD Read Buffer were added. The plates were sealed, covered with tin foil, and incubated at room temperature on a plate shaker for 1 hour. The plates were then read on the SECTOR™ Imager 6000. […] (POC=Percent Of Control of response in the absence of inhibitor).

[5] = system: T cell proliferation in human PBMCs; experiment: Inhibition of T cell proliferation (3H-thymidine incorporation) following anti-CD3 and anti-CD28 stimulation of PBMCs; type: cell-based; conditions: pre-incubation with anti-human CD32 blocking antibody
Text: Inhibition of T cell proliferation following anti-CD3 and anti-CD28 antibody stimulation of PBMCs. PBMC's were previously isolated from normal human donor Leukophoresis packs, purified by density gradient centrifugation (Ficoll Hypaque), cryopreserved in CPZ Cryopreservation Medium Complete (INCELL, MCPZF-100 plus 10% DMSO final). PBMC's were thawed (95% viability), washed, and seeded at 2×10^5 cells per well in culture medium (RPMI medium 1640; GIBCO) supplemented with 10% fetal calf serum, 100 U/ml penicillin, […] streptomycin, 2 mM L-glutamine, 100 μM non-essential amino acids, and 20 μM 2-ME) in 96-well flat-bottom tissue culture plates. Cells were pre-incubated with either anti-human CD32 (FcyRII) blocking antibody (per manufacturers instructions EASY SEP Human Biotin Selection Kit #18553, StemCell Technologies Vancouver, BC) or Fc-L10-ShK (100 nM-0.001 nM final) for 45 min. Fc-L10-ShK (100 nM-0.001 nM final) was then added to the cells containing anti-human CD32 blocking antibody while medium was added to the cells containing Fc-L10-ShK. Both sets were incubated for an additional 45 min before stimulating for 48 hr with aCD3/aCD28 (0.2 ng/ml and 100 ng/ml, respectively). Final assay volume was 200 ul. […] Cells were then harvested onto glass fiber filters and radioactivity was measured in a B-scintillation counter.

[6] = biological target: HEK 293 cells overexpressing human Kv1.3 (Homo sapiens, UniProt P22001); experiment: Immunohistochemistry analysis of binding to HEK 293 cells overexpressing human Kv1.3; conditions: 5 ug/ml, fixed cells, confocal microscopy
Method: HEK 293 cells overexpressing human Kv1.3 (HEK Kv1.3) were obtained from BioFocus plc (Cambridge, UK) and maintained per manufacturer's recommendation. The parental HEK 293 cell line was used as a control. Cells were plated on Poly-D-Lysine 24 well plates (#35-4414; Becton-Dickinson, Bedford, Mass.) and allowed to grow to approximately 70% confluence. HEK KV1.3 were plated at 0.5×10e5 cells/well in 1 ml/well of medium. HEK 293 cells were plated at a density of 1.5×10e5 cells/well in 1 ml/well of medium. […] Cells were stained by incubating with 0.2 ml/well of 5 ug/ml Fc-L10-ShK[1-35] in PBS/BSA for 30′ at room temperature. Fc-L10-ShK[1-35] was aspirated and then the cells were washed one time with PBS/0.5% BSA. Detection antibody (Goat F(ab)2 anti-human IgG-phycoerythrin; Southern Biotech Associates, Birmingham, Ala.) was added to the wells at 5 ug/ml in PBS/0.5% BSA and incubated for 30′ at room temperature. Wash cells once with PBS/0.5% BSA and examine using confocal microscopy (LSM 510 Meta Confocal Microscope; Carl Zeiss AG, Germany). […] In disease settings where activated T effector memory cells have been reported to overproduce Kv1.3, this reagent can find utility in both targeting these cells and in their detection.

[7] = system: upregulation of CD40L and IL-2R on CD4+ T cells in human whole blood; experiment: Ex vivo human whole blood assay, thapsigargin-induced cell surface CD40L and IL-2R on T cells (FACS); type: cell-based; conditions: 24 hours
[8] = biological target: fixed HEK 293 cells overexpressing Kv1.3 (Homo sapiens, UniProt P22001); conditions: whole cell immunoassay
Chain of fixed HEK 293 cells overexpressing Kv1.3 (P22001 whole entry): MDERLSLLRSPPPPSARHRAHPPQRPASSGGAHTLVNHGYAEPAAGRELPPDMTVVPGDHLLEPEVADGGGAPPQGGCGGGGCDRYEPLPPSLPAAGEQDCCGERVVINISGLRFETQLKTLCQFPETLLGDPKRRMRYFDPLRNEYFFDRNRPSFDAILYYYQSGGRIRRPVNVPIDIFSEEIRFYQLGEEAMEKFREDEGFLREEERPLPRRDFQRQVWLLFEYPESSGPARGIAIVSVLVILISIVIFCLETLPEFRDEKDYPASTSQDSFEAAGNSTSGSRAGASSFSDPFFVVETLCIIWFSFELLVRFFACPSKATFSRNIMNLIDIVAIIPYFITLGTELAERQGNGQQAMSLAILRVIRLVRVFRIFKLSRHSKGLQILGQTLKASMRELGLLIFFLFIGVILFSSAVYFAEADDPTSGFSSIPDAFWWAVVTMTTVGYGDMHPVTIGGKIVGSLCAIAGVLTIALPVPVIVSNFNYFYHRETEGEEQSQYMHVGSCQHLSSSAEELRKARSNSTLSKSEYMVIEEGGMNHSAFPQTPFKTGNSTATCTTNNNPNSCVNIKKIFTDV
Method: Parent HEK 293 cells or HEK Kv1.3 cells were plated at 3×10e4 cells/well in poly-D-Lysine coated ninety-six well plates (#35-4461; Becton-Dickinson, Bedford, Mass.). Cells were fixed with formalin (Sigma HT50-1-1 Formalin solution, diluted 1:1 with PBS/0.5% BSA before use) by removing cell growth medium, adding 0.2 ml/well formalin solution and incubating at room temperature for 25 minutes and then washing one time with 100 ul/well of PBS/0.5% BSA. Wells were blocked by addition of 0.3 ml/well of BSA blocker (50-61-00; KPL 10% BSA Diluent/Blocking Solution, diluted 1:1 with PBS; KPL, Gaithersburg, Md.) followed by incubation at room temperature, with shaking, for 3 hr. Plates were washed 2 times with 1×KP Wash Buffer (50-63-00; KPL). Samples were diluted in Dilution Buffer (PBS/0.5% Tween-20) or Dilution Buffer with 1% Male Lewis Rat Serum (RATSRM-M; Bioreclamation Inc., Hicksville, N.Y.) and 0.1 ml/well was added to blocked plates, incubating for 1 hr at room temperature with shaking. […] Absorbance was read at 450 nm on a Molecular Devices SpectroMax 340 (Sunnyvale, Calif.).
Whole cell immunoassay was performed as above with the following modifications. […] Absorbances were read at 405 nm after stopping reactions by addition of 0.1 ml/well of 1% SDS.

T1 sequence (P22001 whole entry): as above
Chain of HEK 293 cells overexpressing human Kv1.3 (P22001 whole entry): as above

E. coli-derived ShK[2-35]-L-Fc showed an IC50 (Kv1.3 [1]) of 4.9 nM.

In the case of “Fc-L10-ShK[1-35]: Fc region of human IgG1 fused in-frame via L10 linker to Kv1.3 inhibitor peptide ShK[1-35]; SEQ ID NO: 78”, the IC50 (Kv1.3 [2]; HEK293 cells stably expressing human Kv1.3, mean±s.e.m., estimated, read-out: IC50, block of outward potassium current) is reported as 0.015 ± 0.002 nM, the “Blockade of human Kv1.3 current (in words)” value (Kv1.3 [2]; patch clamp electrophysiology) is reported as “potently blocked human Kv1.3” and the “Inhibition of IFNγ production” value [3] is reported as “potently inhibits IL-2 and IFNg production”. The “Inhibition of IL-2 production” value [3] was “potently inhibits IL-2 and IFNg production”, the “Inhibition of IFNg production” value [4] was “nearly complete” and the “Inhibition of IL-2 production” value [4] was “nearly complete”. For the same substance, the “Effect of pre-blocking with anti-CD32 (FcR) blocking antibody on inhibition of T cell proliferation” value [5] was “little effect”, the “Binding (staining) to Kv1.3 overexpressing HEK 293 cells” value [6] was “binds to Kv1.3 overexpressing HEK 293 cells” and the “Binding (staining) to untransfected HEK 293 cells” value [6] was “little binding to untransfected cells”. For the same substance, the “Thapsigargin-induced upregulation of CD40L on T cells in human whole blood” value [7] was “suppressed”, the “Thapsigargin-induced upregulation of the IL-2R on T cells in human whole blood” value [7] was “suppressed” and the “Binding response on fixed HEK 293 cells overexpressing Kv1.3” value [8] was “dose-dependent increase in the peptibody binding”. The “Binding response on untransfected HEK 293 cells” value [8] was “does not elicit a response from untransfected HEK 293 cells”.

Source: patent publication US7833979B2, “Toxin peptide therapeutic agents” (Amgen Inc., priority 2005, dated 2010)
